Source: patent publication US20190300577A1 (BETH ISRAEL DEACONESS MEDICAL CENTER, published 2019)
Ends that are not written are not given here.

Tests used:
[1] = target: T1, recombinant human P-selectin Fc chimera (human, UniProt P16109 42-771); experiment: Biacore; biotinylated glycopeptide captured on a streptavidin chip, hP-sel-Ig flowed over (trace shown at 20 µg/ml) [lower left panel 'hP-sel-Ig (20 µg/ml)' (D in the legend]
T1 construct: also called P-sel-Ig; recombinant Ig chimera of P-selectin
Excerpt: (§1) GSnP-6 bound to E- and L-selectin with even lower apparent affinity.

[2] = target: T2, recombinant mouse P-selectin Fc chimera (mouse, UniProt Q01102 42-709); experiment: Biacore; biotinylated glycopeptide captured on a streptavidin chip, mP-sel-Ig flowed over (trace shown at 20 µg/ml) [lower middle panel 'mP-sel-Ig (20 µg/ml)' (E in the legend]
T2 construct: also called murine P-selectin; P-sel-Ig; not shown: Ig (Fc) part of the chimera
T2 sequence (looked up): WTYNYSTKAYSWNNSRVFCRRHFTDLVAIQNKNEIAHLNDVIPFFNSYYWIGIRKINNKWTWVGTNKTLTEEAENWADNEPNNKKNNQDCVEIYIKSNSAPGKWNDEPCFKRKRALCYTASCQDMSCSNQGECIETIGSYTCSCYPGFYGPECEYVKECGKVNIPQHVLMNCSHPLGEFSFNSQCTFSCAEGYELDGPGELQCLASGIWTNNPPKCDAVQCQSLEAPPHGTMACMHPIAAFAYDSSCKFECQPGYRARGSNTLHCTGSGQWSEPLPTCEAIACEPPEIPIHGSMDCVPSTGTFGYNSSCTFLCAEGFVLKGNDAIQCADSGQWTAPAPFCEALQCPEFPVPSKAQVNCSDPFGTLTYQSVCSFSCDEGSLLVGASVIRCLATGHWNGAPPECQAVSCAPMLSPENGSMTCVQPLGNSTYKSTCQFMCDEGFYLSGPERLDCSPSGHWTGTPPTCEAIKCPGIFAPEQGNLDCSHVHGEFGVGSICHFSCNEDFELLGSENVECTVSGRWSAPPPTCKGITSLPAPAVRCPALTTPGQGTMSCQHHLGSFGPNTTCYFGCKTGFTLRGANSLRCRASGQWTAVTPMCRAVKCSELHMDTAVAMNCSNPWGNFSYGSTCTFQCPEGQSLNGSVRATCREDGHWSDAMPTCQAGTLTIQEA
Excerpt: as §1

T1 sequence (P16109 42-771, change not shown): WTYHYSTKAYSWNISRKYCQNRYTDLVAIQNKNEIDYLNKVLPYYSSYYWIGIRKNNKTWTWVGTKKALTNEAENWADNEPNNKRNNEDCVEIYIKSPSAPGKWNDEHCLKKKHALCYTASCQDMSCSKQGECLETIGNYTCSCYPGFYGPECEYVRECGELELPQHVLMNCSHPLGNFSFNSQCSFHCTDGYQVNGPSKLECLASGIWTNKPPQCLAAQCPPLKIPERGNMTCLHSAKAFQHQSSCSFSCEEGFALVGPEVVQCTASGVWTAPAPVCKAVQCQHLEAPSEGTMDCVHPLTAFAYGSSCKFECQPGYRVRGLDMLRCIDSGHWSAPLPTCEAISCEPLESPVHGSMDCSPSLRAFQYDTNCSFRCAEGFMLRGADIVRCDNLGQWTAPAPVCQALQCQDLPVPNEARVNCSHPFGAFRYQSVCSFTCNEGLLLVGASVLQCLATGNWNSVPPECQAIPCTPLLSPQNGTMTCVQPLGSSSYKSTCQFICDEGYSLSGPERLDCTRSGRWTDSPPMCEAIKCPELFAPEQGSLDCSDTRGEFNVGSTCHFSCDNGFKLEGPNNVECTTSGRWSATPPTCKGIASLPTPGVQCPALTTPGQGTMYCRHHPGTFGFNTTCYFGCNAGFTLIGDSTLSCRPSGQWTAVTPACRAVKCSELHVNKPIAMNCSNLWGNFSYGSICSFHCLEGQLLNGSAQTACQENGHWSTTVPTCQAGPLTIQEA

**Q.** With EYEYLDYDFLPET(Core‑2 O‑glycan hexasaccharide with sLe^x)EPPE (peptide, UniProt Q14242 45-61, looked up, also: tyrosine O-sulfate, positions not given here, Synthetic glycosulfopeptide) [GSP-6] as the binder, how does the Kd [1] read?
**A.** ~9 nM

**Q.** And the Kd [2]?
**A.** ~128 nM
